Data published in patent US20030220239A1 (published 2003).

What was measured:
[1] = target: HLA-A2.1 (HLA-A*0201) on T2 cells (human); experiment: T2 cell HLA-A2 stabilisation, flow cytometry
[2] = target: HLA-A2.1 (HLA-A*0201) on T2 cells (human); experiment: T2 cell HLA-A*0201 stabilisation, flow cytometry
[3] = target: HLA-A2.1 (HLA-A*0201) on T2 cells (human); experiment: T2 cell HLA-A2.1 stabilisation, flow cytometry
Description: Peptide was mixed with the cells by repipeting before distributing to the plate (alternatively peptide can be added to individual wells), and the plate was rocked gently for 2 minutes. Incubation was in a 5% CO₂ incubator at 37° C. The next day the unbound peptide was removed by washing twice with serum free RPMI medium and a saturating amount of anti-class I HLA monoclonal antibody, fluorescein isothiocyanate (FITC)-conjugated anti-HLA A2, A28 (One Lambda, Canoga Park, Calif.) was added. After incubation for 30 minutes at 4° C., cells were washed 3 times with PBS supplemented with 0.5% BSA, 0.05% (w/v) sodium azide, pH 7.4-7.6 (staining buffer). (Alternatively W6/32 (Sigma) can be used as the anti-class I HLA monoclonal antibody the cells washed with staining buffer and then incubated with fluorescein isothiocyanate (FITC)-conjugated goat F(ab′) antimouse-IgG (Sigma) for 30 min at 4° C. and washed 3 times as before.) The cells were resuspended in 0.5 ml staining buffer. […] If flow cytometry is not to be performed immediately the cells can be fixed by adding a quarter volume of 2% paraformaldehyde and storing in the dark at 4° C.

Binder | binding result [1] | further results
FLPWHRLFL (also called Tyr 207-215) [tyrosinase207-215, FLPWHRLFL] | binds | –
MMNDQLMFL [PSMA663-671 (SEQ ID NO. 66)] | – | binding result [2]: binds
LPWHRLFLL (also called Tyr 208-216) [tyrosinase208-216, LPWHRLFLL] | binds | –
KASEKIFYV [SSX-2 41-49, KASEKIFYV] | – | binding result [3]: binds
